Data taken from PMC5701251.

Target: gp49d, deletion mutant of the phage LKA1 tailspike protein LKA1gp49 without the N-terminal particle-binding domain (residues 1-167) (Pseudomonas phage LKA1)
Assay: crystal structure; gp49d crystallised in 8% PEG 6000, 0.8 M NaCl, 0.1 M Na acetate pH 3.5 at 18 °C, 20 mg/ml; molecular replacement with gp61d; homotrimer

Q: With “gp49d, deletion mutant of the phage LKA1 tailspike protein LKA1gp49 without the N-terminal particle-binding domain (residues 1-167) (domain or fragment)” as the substance, how does the stoichiometry N read?
A: Its stoichiometry N is 3.
